Tested on: MS2 coat protein
Assay: apparent KD of MS2 coat protein; higher = weaker reporter binding
Details: Eterna round: R107
Summary of the method: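 In 100 mM Tris-HCl pH 7.5 with 80 mM KCl and 4 mM MgCl2, and without or with constant ligand, SNAP-549-labelled MS2 coat protein was titrated in twofold steps from 0.7 or 1.5 nM to 3 µM. Per-step times went from 0.8–1.5 h down to 10–20 min. The RNA switches were transcribed on-chip from Illumina sequencing clusters, and apparent KD is the per-design median of normalised cluster binding-curve fits.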

[1] = input ligand: theophylline 20 uM
[2] = input ligand: tryptophan 2.4 mM
[3] = input ligand: theophylline 2 mM

Row | Sequence | apparent KD of MS2 coat protein (input ligand: arginine 13.2 mM) [nM] | apparent KD of MS2 coat protein [1] [nM] | apparent KD of MS2 coat protein [2] [nM] | apparent KD of MS2 coat protein (input ligand: none) [nM] | apparent KD of MS2 coat protein [3] [nM]
1 | AGCCGAAACCUUGAUACCAGAUCAUGCUGCACAUGAGGAUCACCCAUGUCGUUAAACAUGGUCCCUUGGCAGCAAGUUAGGAUCU [Usustiusso] | 114 | 161 | 103 | – | –
2 | AGCCGAACCACGGCCGCCACUGUAGACGUGACGAAAGUCGCGUCAACAUGAGGAUCACCCAUGUACAGGACCGGGUGGUCCGGCA [Omei Trp B SS A v2] | 9.09 | 11.2 | 6.75 | 8.68 | 8.09
3 | AGCCGCGUUCUUUCUUUCUUUCUAGCGGCACGAGGACCGGUACGGCCGCCACUCGAAGACAUGAGGAUCACCCAUGUAGUGGGUA [The Second Ring] | 47.4 | 142 | 206 | 123 | 109
4 | AGCCGGAUUACGGCCGCCACUGUAGACGUGACGAAAGUCGCGUCAACAUGAGGAUCACCCAUGUACAGGACCGGGUGGUCAGGCG [Omei Tryp B SS A v4] | 108 | 432 | – | – | 464
5 | AGCCUCAUACAUGAGGAUCACCCAUGUGAUACCAGUCAGGAAACUGACCCUUGGCAGCGCAUGAGGAUCACCCAUGCGCGAGGCA [Omei Theo A Exc A v1] | 40.1 | 123 | 36.8 | – | –
6 | AGCCUCAUACAUGAGGAUCACCCAUGUGAUACCAGUCAGGAAACUGACCCUUGGCAGCGCAUGAGGAUCACCCAUGUGCGAGGCA [Omei Theo A Exc A v2] | 25.1 | 171 | 32.9 | – | –
7 | AGCGACAUGAGGAUCACCCAUGUACAUUCCCGAGGACCGGUACGGCCGCCACUCGAUGGAAGUGGUAGCAGCUUGGAUGGGCCUA [theeternabot_sameState_MS2_Trp_A_23] | 14.5 | 20 | – | – | 17.8
8 | AGCGACAUGCAUGAUACCAGCUACAUGAGGAUCACCCAUGUACGUCAGUAAUGACUGUGUAGCCCUUGGCAGCAUAGAGCAUGUC [Exclusion - Theophylline B (Freestyle 16)] | 14.3 | 28.8 | 17.3 | – | –
9 | AGCGACAUGCGUGAUACCAGCUACAUGAGGAUCACCCAUGUAAGUAGGAAACUACUGUGUAGCCCUUGGCAGCACAGUGCAUGUC [Exclusion - Theophylline B (Freestyle 23)] | 10.3 | 14 | 10.8 | – | –
10 | AGCGACAUGCGUGAUACCAGCUACAUGAGGAUCACCCAUGUAAGUAGGAAACUACUGUGUAGCCCUUGGCAGCAUAGUGCAUGUC [Exclusion - Theophylline B (Freestyle 22)] | 13.4 | 23.5 | 15 | – | –
11 | AGCGGAACGGAAGGGUCCCAAAAUUGUGAUACCAGCCUUGAAUCCGGCCCUUGGCAGCACAUGAGGAUCACCCAUGUACUGCGGU [Celate] | 11.1 | 24.6 | 14.4 | 11 | 123
12 | AGCGGCUCGAAAGAGUCGCACUCAUGUGAAGGAGCGCCCGUUAGGGCAGGUAGGUCGCACAUGAGGAUCACCCAUGUACCUUCUA [MAT - Exclusion Arginine A - Mod of Eli - D19] | 53.1 | 282 | 140 | 196 | 312
13 | AGCGUAUAGACGGAUACCAGCGCCAAUUAACAUGAGGAUCACCCAUGUAGUGUGGGUGGACGCCCUUGGCAGCCGAGUAUAGGUA [Exclusion - Theophylline B / A] | 57.3 | 274 | 250 | – | –
14 | AGCGUUCAGCUUAUACUGGACAAUGGGUGACGAGGACCGGUACGGCCGCCACUCGGGCGCCCGGUUACAUGAGGAUCACCCAUGU [Vedizaus] | 52.2 | 213 | 20.5 | 195 | 212
15 | AGCUCGCUUCCUCAAGCGUCAAAGACGCGUCGAGGACCGGUACGGCCGCCACUCGACCUGAGGAUCACCCGGGUCUAAGCGAGCA [TrypAX 8 #SwitchBubble #AlternativeMS2 #MS2Late #CuTurnoff] | 45.8 | 136 | 325 | 115 | 177
16 | AGGACUUGCGUUCAAAAUCCCAUGUUGGAAGGAGCGCAUAUAGUUGCAGGUAGGUCGCCGACAUGAGGAUCACCCAUGUCUUUUC [Zasorequer] | 36 | 43.8 | 35.2 | 40.3 | 40.5
17 | AGUACUCGAACGGAUACCAGCCGGACAUGAGGAUCACCCAUGUCCUACCAAUGUUCGGUUGGCCCUUGGCAGCCGUUCGUGUACA [Omei Theo B SS A v5] | 99.5 | 404 | 599 | – | –
18 | AGUAGUUGACAAAAGUCAGCUACAACUGAAGGAGCGGGUGGGUGCCCAGGUAGGUCGCGGAAACAUGAGGAUCACCCAUGUAUAA [ArgAS 1 #BothOrNeither #OpenEnded] | 37.3 | 19.4 | 21.7 | 13.1 | 21.7
19 | AGUCUUAUAGGAAGGAGCGCAUACUUCACAUGAGGAUCACCCAUGUCAAGACGUGAGUCAAUGCAGGUAGGUCGCCUAACUAAGA [Same State - Arginine B (Freestyle 12)] | 18 | 20.4 | 14.6 | 18.8 | 17.7
20 | AGUCUUAUAGGAAGGAGCGCAUACUUCACAUGAGGAUCACCCAUGUCAAGGAGUGAGUCAAUGCAGGUAGGUCGCCUAACUAAGA [Same State - Arginine B (Freestyle 10)] | 38.6 | 112 | 88.3 | 108 | 139
21 | AGUCUUGAACGAAGGAGCGACGUACAUGAGGAUCACCCAUGUGGGAGCGAAAGCUCCCAACGUCAGGUAGGUCGCGUUCGAGACA [SS-ArgB29] | 16.9 | 24.7 | 18.5 | 17.7 | 20.4
22 | AGUCUUGAACGAAGGAGCGACGUACAUGAGGAUCACCCAUGUGUAGGAGCGAAAGCUCCACGUCAGGUAGGUCGCGUUCGAGACA [Omei Arginine B SS A v4] | 12.1 | 14.4 | 13.9 | 11.7 | 12.5
23 | AGUGUCGGAGCGGCCGCCACUAGCACAUCUGGUCGCCAUGGCAACAUGAGGAUCACCCAUGUUGCUAGGACCGGGCUCAAUAUUU [Maengele] | 8.37 | 10.9 | – | – | 8.8
24 | AGUUUAGACACGGCCGCCACUCGUGACAGAUUUAGCAGUGGUCAACAUGAGGAUCACCCAUGUCUGAGGACCGGGUGUUGAGUUU [XTryp B #6] | 78.9 | 176 | – | – | 217
25 | AUAAAUAAUAAAUAAAAUAAAAUGGGUGAACGAGGACCGGUACGGCCGCCACUCGGACAUGAGGAUCACCCAUGUCCAUGUGAAA [#21 Exclusion Tryptophan A] | 15.6 | 20.3 | – | – | 22.7
26 | AUAACAUGAGGAUCACCCAUGUAAGCUGAAGGAGCGCUGGAAACAGCAGGUAGGUCGCAGCAUGUUUCCAAUCCUCAUGGAAACA [(M1)-(M2)-(Arg1)-(Arg2)-(A)'-(M)'-(A)''_Design9] | 53.4 | 159 | 105 | 152 | 136
